Test in all cases: SPR
For orientation: Surface plasmon resonance follows binding to a sensor surface in real time, without labels.

The target of data set [1] is alpha-synuclein (aSyn) WT (human, UniProt P37840 1-140).
A further data set concerns the target aSyn dCterm (UniProt P37840 1-95, del96-140).
The next data set addresses aSyn dNAC (UniProt P37840 1-140, del61-95).

As a reminder, the Kd is the equilibrium constant for the complex coming apart. Read a low Kd as a tighter complex.

B1: G4mt biotin (ssRNA)
RNA: UUACCGUUACCGUUACCGUUACCG
Consider B1, for which the binding result in data set [1] was “no binding”.

B2: G4tr biotin (structured_RNA)
RNA: UUAGGGUUAGGGUUAGGGUUAGGG
In the case of B2, the Kd in data set [1] turned out to be 3.63 ± 0.63 µM. The binding result with aSyn dCterm and with aSyn dNAC was “binds” throughout.
